Measurements: US20190162720A1
Each block holds one substance with its values, some of them ahead of it.

Assays:
[1] = target: anti-CRP antibody (R&D Systems, Inc., Human C-Reactive protein Antibody, Monoclonal Mouse IgG2B, MAB17071-500); assay: SPR Biacore T200; anti-CRP antibody 100 µg/mL fed over protein G held on the first antibody (Example 6)
[2] = target: anti-biotin monoclonal antibody (Abcam plc., ab36406, Mouse monoclonal); assay: SPR Biacore T200; protein G 40 µg/mL fed over anti-biotin monoclonal antibody on the chip (Example 6)
[3] = target: anti-CRP antibody (R&D Systems, Inc., Human C-Reactive protein Antibody, Monoclonal Mouse IgG2B, MAB17071-500); assay: SPR Biacore T200; anti-CRP antibody 100 µg/mL fed over protein A/G (8) held on anti-mPEG antibody (Example 11)
[4] = target: anti-biotin monoclonal antibody (Abcam plc., ab36406, Mouse monoclonal); assay: SPR Biacore T200; protein A/G (eight domains) 30 µg/mL fed over anti-biotin monoclonal antibody on the chip (Example 8)
[5] = target: anti-mPEG monoclonal antibody (Abcam plc., ab51257, Mouse monoclonal, Anti-Polyethylene glycol antibody [PEG-B-47]); assay: SPR Biacore T200; protein A/G (eight domains) 119 µg/mL fed over anti-mPEG antibody on the mPEG chip (Example 11)
[6] = target: anti-CRP antibody (R&D Systems, Inc., Human C-Reactive protein Antibody, Monoclonal Mouse IgG2B, MAB17071-500); assay: SPR Biacore T200; anti-CRP antibody 100 µg/mL fed over protein A/G (8) held on the first antibody (Example 8)
[7] = target: C-Reactive protein (CRP, R&D Systems, Inc., 1707-CR-200, Mouse myeloma cell line) (UniProt P02741); assay: SPR Biacore T200; CRP 1.0 µg/mL fed over antibody held through protein A/G (6) (Example 14)
[8] = target: C-Reactive protein (CRP, R&D Systems, Inc., 1707-CR-200, Mouse myeloma cell line) (UniProt P02741); assay: SPR Biacore T200; CRP 1.0 µg/mL fed over antibody held through protein A/G (6) (Example 13)
[9] = target: C-Reactive protein (CRP, R&D Systems, Inc., 1707-CR-200, Mouse myeloma cell line) (UniProt P02741); assay: SPR Biacore T200; CRP 1.0 µg/mL fed over antibody held through protein A/G (6) (Example 16)
[10] = target: C-Reactive protein (CRP, R&D Systems, Inc., 1707-CR-200, Mouse myeloma cell line) (UniProt P02741); assay: SPR Biacore T200; CRP 1.0 µg/mL fed over antibody held through protein G (Example 6)
[11] = target: C-Reactive protein (CRP, R&D Systems, Inc., 1707-CR-200, Mouse myeloma cell line) (UniProt P02741); assay: SPR Biacore T200; CRP 1.0 µg/mL fed over antibody held through protein A/G (8) (Example 11)
[12] = target: C-Reactive protein (CRP, R&D Systems, Inc., 1707-CR-200, Mouse myeloma cell line) (UniProt P02741); assay: SPR Biacore T200; CRP 1.0 µg/mL fed over antibody coupled covalently (EDC/s-NHS) to the SAM; corrected with anti-IL6 reference interface (Comparative Example 2)
[13] = target: C-Reactive protein (CRP, R&D Systems, Inc., 1707-CR-200, Mouse myeloma cell line) (UniProt P02741); assay: SPR Biacore T200; CRP 1.0 µg/mL fed over antibody held through protein A/G (6) (Example 9)
[14] = target: C-Reactive protein (CRP, R&D Systems, Inc., 1707-CR-200, Mouse myeloma cell line) (UniProt P02741); assay: SPR Biacore T200; CRP 1.0 µg/mL fed over antibody held through protein A/G (6) (Example 12)
[15] = target: C-Reactive protein (CRP, R&D Systems, Inc., 1707-CR-200, Mouse myeloma cell line) (UniProt P02741); assay: SPR Biacore T200; CRP 1.0 µg/mL fed over antibody held through protein A/G (6) (Example 17)
[16] = target: C-Reactive protein (CRP, R&D Systems, Inc., 1707-CR-200, Mouse myeloma cell line) (UniProt P02741); assay: SPR Biacore T200; CRP 1.0 µg/mL fed over antibody held through protein A/G (6) (Example 10)
[17] = target: C-Reactive protein (CRP, R&D Systems, Inc., 1707-CR-200, Mouse myeloma cell line) (UniProt P02741); assay: SPR Biacore T200; CRP 1.0 µg/mL fed over antibody held through protein A/G (6) (Example 15)
[18] = target: C-Reactive protein (CRP, R&D Systems, Inc., 1707-CR-200, Mouse myeloma cell line) (UniProt P02741); assay: SPR Biacore T200; CRP 1.0 µg/mL fed over antibody held through protein A/G (8) (Example 8)
[19] = target: C-Reactive protein (CRP, R&D Systems, Inc., 1707-CR-200, Mouse myeloma cell line) (UniProt P02741); assay: SPR Biacore T200; CRP 1.0 µg/mL fed over antibody held through protein A/G (6) (Example 7)

UniProt P02741, sequence (P02741 19-224 limits assumed): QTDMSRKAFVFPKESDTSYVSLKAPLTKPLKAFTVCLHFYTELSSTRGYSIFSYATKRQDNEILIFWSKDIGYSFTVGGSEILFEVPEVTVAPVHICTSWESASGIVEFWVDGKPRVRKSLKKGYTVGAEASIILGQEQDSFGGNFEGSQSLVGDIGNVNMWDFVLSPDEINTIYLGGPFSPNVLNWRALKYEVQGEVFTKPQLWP

- Amount of second antibody immobilized [1]: 2010 RU
- amount of the protein G immobilized [2]: 841 RU
Substance: protein G (BioVision Incorporated, 6501, recombinant protein G, three domains)

- Amount of second antibody immobilized [3]: 3210 RU
- amount of the protein A/G immobilized [4]: 868 RU
- amount of the protein A/G immobilized [5]: 820 RU
- Amount of second antibody immobilized [6]: 3460 RU
Substance: protein A/G (BioVision Incorporated, 6502, Recombinant Protein A/G from E. coli, eight domains)

- Amount of antigen bound [7]: 630 RU
- Amount of antigen bound [8]: 560 RU
- Amount of antigen bound [9]: 514 RU
- Amount of antigen bound [10]: 513 RU
- Amount of antigen bound [11]: 536 RU
- Amount of antigen bound [12]: 284 RU
- Amount of antigen bound [13]: 408 RU
- Amount of antigen bound [14]: 508 RU
- Amount of antigen bound [15]: 481 RU
- Amount of antigen bound [16]: 663 RU
- Amount of antigen bound [17]: 519 RU
- Amount of antigen bound [18]: 745 RU
- Amount of antigen bound [19]: 422 RU
Substance: anti-CRP antibody (R&D Systems, Inc., Human C-Reactive protein Antibody, Monoclonal Mouse IgG2B, MAB17071-500)
